Source: PMC9919357

Biological target: Neuropeptide Y (TAMRA-NPY) (Sus scrofa), P01304

B1: Neuropeptide Y receptor type 2 (Y2R-A202C), P49146 (protein)
chain: MGPIGAEADENQTVEEMKVEQYGPQTTPRGELVPDPEPELIDSTKLIEVQVVLILAYASIILLGVIGNSLVIHVVIKFKSMRTVTNFFIANLAVADLLVNTLALPFTLTYTLMGEWKMGPVLCHLVPYAQGLAVQVSTITLTVIALDRHRAIVYHLESKISKRISFLIIGLAWGISALLASPLAIFREYSLIEIIPDFEIVCCTEKWPGEEKSIYGTVYSLSSLLILYVLPLGIISFSYTRIWSKLKNHVSPGAANDHYHQRRQKTTKMLVAVVVVFAVSWLPLHAFQLAVDIDSQVLDLKEYKLIFTVFHIIAMASTFANPLLYGWMNSNYRKAFLSAFRCEQRLDAIHSEVSVTFKAKKNLEVRKNSGPNDSFTEATNV
- Kd: 32 nM
